In article PMC12375108 one finds stoichiometry N (hinT dimers per GlnA dodecamer) and Kd data, which are given here for two substances.

In assay [1] the target is AMPylated GlnA (glutamine synthetase), recombinant (E. coli) (UniProt P0A9C5). As to the kind of experiment: cryo-EM structure; GlnA (4.68 mg/ml) mixed with hinT (3.29 mg/ml), 1:3 molar ratio of monomers; 10 mM Tris pH 8, 150 mM NaCl, 2 mM DTT.
Assay [2] deals with GST-tagged H. sapiens hinT H112N (human) (UniProt P49773). Description: BLI; GST-hinT (90 nM) immobilised on anti-GST biosensors; sucA-AMP 500 to 7.81 nM, unmodified sucA at 500 nM; 10 mM Tris pH 8, 150 mM NaCl, 0.1% Triton X-100; KD from steady-state responses, one site. A general note: Biolayer interferometry detects binding as a change in optical thickness at a sensor tip.
Sequence of GST-tagged H. sapiens hinT H112N (human) (P49773 whole entry H112N): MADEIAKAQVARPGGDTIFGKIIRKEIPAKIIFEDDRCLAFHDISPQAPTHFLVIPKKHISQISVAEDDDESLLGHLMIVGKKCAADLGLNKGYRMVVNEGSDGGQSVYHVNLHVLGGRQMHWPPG
Assay [3] deals with GST-tagged E. coli hinT H101N (E. coli) (UniProt P0ACE7). Described as above.

With “E. coli hinT H101N (untagged) (from UniProt P0ACE7 1-119) (enzyme)”, the stoichiometry N (hinT dimers per GlnA dodecamer) in assay [1] was below 6.

For orientation: Kd means the equilibrium constant for the complex coming apart. With “AMPylated sucA (from UniProt P0AFG3 1-933) (enzyme)”, the Kd in assay [2] stood at 10 nM; in assay [3], 27 nM.
